Source: patent US8076300B2, “FGF2-binding peptides and uses thereof” (Tecnogen S.p.A., priority 2006, dated 2011)
Ends that are not written are not given here.

B1: Cterm-PTX3: recombinant 6×His-tagged C-terminal fragment of PTX3 from E. coli (protein)
chain: CETAILFPMRSKKIFGSVHPVRPMRLESFSACIWVKATDVLNKTILFSYGTKRNPYEIQLYLSYQSIVFVVGGEENKLVAEAMVSLGRWTHLCGTWNSEEGLTSLWVNGELAATTVEMATGHIVPEGGILQIGQEKNGCCVGGGFDETLAFSGRLTGFNIWDSVLSNEEIRETGGAESCHIRGNIVGWGVTEIQPHGGAQYVSHHHHHH
B2: sCterm-PTX3: C-terminal fragment PTX3(179-381) fused to the leader sequence for secretion PTX3(1-17) (protein)
chain: CETAILFPMRSKKIFGSVHPVRPMRLESFSACIWVKATDVLNKTILFSYGTKRNPYEIQLYLSYQSIVFVVGGEENKLVAEAMVSLGRWTHLCGTWNSEEGLTSLWVNGELAATTVEMATGHIVPEGGILQIGQEKNGCCVGGGFDETLAFSGRLTGFNIWDSVLSNEEIRETGGAESCHIRGNIVGWGVTEIQPHGGAQYVS

Tests used:
[1] = system: GM7373 cells; assay: Cell proliferation assay, endothelial GM7373 cells; format: cell-based, bovine; settings: for inhibition of mitogenic activity exerted by FGF2: peptides 66 μM, PTX3 220 nM
Protocol: Cell proliferation assay on endothelial cells was performed as described^22. Briefly, GM7373 or MAE cells were seeded in 96-well dishes at 75,000 cells/cm^2 or 25,000 cells/cm^2, respectively. After 16 h, cells were incubated in fresh medium containing 0.4% FCS plus FGF2 (0.55 nM) in the absence or in the presence of different antagonists. After 24 or 48 h, respectively, cells were trypsinized and counted in a Burker chamber.

[2] = molecular target: T1, FGF2 (Homo sapiens, UniProt P09038); assay: Solid phase binding assay, FGF2 binding to immobilized synthetic PTX3 peptides; design: made in house; host or cells: E. coli; settings: peptides 200 μg/well, FGF2 80 nM
T1 sequence (P09038 134-288): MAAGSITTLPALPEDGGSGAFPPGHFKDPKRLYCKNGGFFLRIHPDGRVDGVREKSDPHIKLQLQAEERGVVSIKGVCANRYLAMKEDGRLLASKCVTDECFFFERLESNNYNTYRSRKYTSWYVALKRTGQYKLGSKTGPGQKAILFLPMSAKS
Protocol: (§1) ELISA microplates were incubated for 16 hours at 4° C. with 100 μl/well of 100 mM NaHCO3, pH 9.6 (coating buffer) containing FGF2 (270 nM). Then, wells were overcoated for 2 hours at room temperature with 5% dry milk in coating buffer. […] Then, wells were sequentially incubated for 1 hour at 37° C. with a rabbit polyclonal anti-PTX3 antibody (1:2000 dilution) that recognizes both PTX3 fragments with similar efficiency in Western blot and ELISA, an anti-rabbit biotinylated antibody (1:2000), and 100 μl of streptavidin-horseredish peroxidase (1:5000, Amersham) for 1 hour at room temperature. Then, 100 μl/well of the chromogen substrate 2,29-azinobis(3-ethylbenzthiazolinesulfonic acid) were added. Absorbance values were read at 405 nm in an automatic ELISA reader. In some experiments, 100-μl aliquots of PBS containing biotin-labeled PTX3 (bPTX3) (22 nM) were incubated for 30 minutes at 37° C. onto FGF2-coated wells with or without competitors. Then, wells were washed, and the amount of bound bPTX3 was evaluated as described^17. Alternatively, synthetic PTX3 peptides were immobilized on ELISA microplate wells (200 μg/well) as described above. Then, FGF2 (80 nM) was added and FGF2 bound to immobilized peptides was assessed by 1 hour incubation at 37° C. with a rabbit polyclonal anti-FGF2 antibody (1:7000) followed by immunocomplex detection as described above.

[3] = molecular target: T1, FGF2; assay: BIAcore binding assay, FGF2 binding to PTX3 immobilized to a sensorchip; design: made in house; host or cells: FGF2: E. coli; PTX3: Chinese hamster ovary cells; settings: for inhibition of FGF2 binding to PTX3 immobilized to a BIAcore sensorchip / IC50: FGF2 0.8 μM; for inhibition of FGF2 binding to PTX3 immobilized to a BIAcore sensorchip: increasing peptide concentrations; for IC50: antagonist in mobile phase, read-out: ID50, inhibition of FGF2 binding to the PTX3 surface
Protocol: A BIAcore X apparatus (BIAcore Inc, Piscataway, N.J.) was used. Surface plasmon resonance was exploited to measure changes in refractive index caused by the ability of FGF2 to bind to PTX3 immobilized to a BIAcore sensorchip. To this purpose, PTX3 (2.2 μM) was allowed to react with a flow cell of a CM4 sensorchip that was previously activated with 50 μl of a mixture of 0.2 M N-ethyl-N′-(3-dimethylaminopropyl)-carbodiimide hydrochloride and 0.05 M N-hydroxysuccinimide. These experimental conditions allowed the immobilization of 5,000 resonance units (RUs), corresponding to approximately 0.1 pmoles of PTX3. Similar results were obtained for immobilization of gelatin, here used as a negative control and for blank subtraction. Increasing concentrations of FGF2 with or without synthetic PTX3 peptides were then injected in dilution buffer (PBS plus 0.005% surfactant P20, 5.0 μg/mL CaCl2 and MgCl2) over the PTX3 surface for 4 minutes (to allow their association with immobilized PTX3) and then washed until dissociation was observed.

[4] = system: chick embryo CAM; assay: Chicken embryo chorioallantoic membrane (CAM) assay, FGF2-induced neovascularization; format: in vivo; settings: for macroscopic vessels converging towards the implant: FGF2 16 pmoles/embryo, with or without 3.0 nmoles of peptide, 72 hours
Protocol: Alginate beads (5 μl) containing vehicle or 16 pmoles of FGF2 with or without synthetic PTX3 peptides were prepared as described 24 and placed on top of the CAM of fertilized White Leghorn chicken eggs at day 11 of incubation (10 eggs per experimental group). After 72 hours, blood vessels converging towards the implant were counted by two observers in a double-blind fashion under a stereomicroscope (STEMI-SR, x2/0.12; Zeiss).

[5] = molecular target: T1, FGF2; assay: Solid phase binding assay, PTX3 proteins on FGF2-coated wells; design: made in house; host or cells: E. coli; settings: proteins at 44 nM, 30 minutes at 37° C.
Protocol: as §1

[6] = system: MAE cells; assay: Cell proliferation assay, retrovirus infected MAE cells stimulated with FGF2; format: cell-based, murine; settings: retroviral overexpression in MAE cells, FGF2 0.55 nM, 48 h
Source text: The cDNAs encoding for human PTX3 and for the enhanced green fluorescent protein (EGFP) were obtained as described^17. The cDNAs encoding for the N-terminal fragment PTX3(1-178) (Nterm-PTX3) and the C-terminal fragment PTX3(179-381) fused to the leader sequence for secretion PTX3(1-17) (sCterm-PTX3) were generated from pLX-PTX3^17 by PCR and standard cloning techniques. All cDNAs were cloned in the pBABE retroviral vector thus generating pBABE-PTX3, pBABE-Nterm-PTX3, pBABE-sCterm-PTX3, and pBABE-EGFP that were used to transfect the EcoPack2-293 packaging cells in the presence of Lipofectamin 17. Transduced cells were selected with puromycin (1 μg/ml, Sigma) for 2 weeks. Clones with a viral titer higher than […] were used for further experimentation. Confluent cultures of MAE cells were then incubated for 24 hours with the conditioned medium from pBABE-PTX3, pBABE-Nterm-PTX3, PBABE-sCterm-PTX3, or pBABE-EGFP packaging cells in the presence of polybrene (8 μg/ml, Sigma). Infected cell populations were selected for 7 days with puromycin. […] To assess the levels of transgene protein expression and release by infected cells, cell cultures were grown under serum-free conditions for 2 days. […]
Cell proliferation assay on endothelial cells was performed as described^22. […] After 24 or 48 h, respectively, cells were trypsinized and counted in a Burker chamber.

| Molecule | inhibition of mitogenic activity exerted by FGF2 ([1]; FGF2 0.55 nM) | binding of free FGF2 to immobilized peptide or PTX3 [2] | inhibition of FGF2 binding to PTX3 immobilized to a BIAcore sensorchip [3] | other results |
| --- | --- | --- | --- | --- |
| APAEARLTSALDELLQATRDAGRRLA [PTX3(107-132)] | ineffective | limited interaction | no inhibitory effect |  |
| ARPCA [PTX3(100-104)] | inhibits |  | significant binding to FGF2 |  |
| ARPCAPGAPAE [PTX3(100-110)] |  |  | did not prevent the binding |  |
| DKLFIMLENSQMRERMLLQATDDVLRGEL [PTX3(57-85)] | ineffective | not | no inhibitory effect |  |
| DNEIDNGLHPTEDPTPCDCGQEHSEWDKLF [PTX3(31-60)] | ineffective | not | no inhibitory effect |  |
| EGLRGELRGSREAELLRQAARAPACPLPE [scrambled PTX3(82-110), reference compound] |  |  |  | IC50 [3]: > 3000 µM |
| ESLARPCA [PTX3(97-104)] |  |  | did not prevent the binding |  |
| ESLARPCAPGA [PTX3(97-107)] |  |  | significant binding to FGF2 |  |
| ESLARPCAPGAPAE [PTX3(97-110)] | inhibits | binds | preventing its interaction with PTX3 immobilized to a BIAcore sensorchip | inhibition in the angiogenic response triggered by FGF2 ([4]; 80 nmoles of peptide, FGF2 16 pmoles): 50% |
| FGF2: Human recombinant FGF2 expressed in E. coli; heparin-binding growth factor, the angiogenic stimulus |  |  |  | macroscopic vessels converging towards the implant [4]: 44±7 vessels/embryo |
| RGELQRLREELGRLA [PTX3(82-96)] | not | without interacting | ineffective | effect on angiogenic response triggered by FGF2 ([4]; FGF2 16 pmoles): no effect |
| RGELQRLREELGRLAESLAR [PTX3(82-101)] | not | without interacting | ineffective |  |
| RGELQRLREELGRLAESLARPCAPGAPAE [PTX3(82-110)] | inhibit | binds |  | IC50 ([1]; dose-response, read-out: ID50, FGF2-antagonist activity on GM7373 cell proliferation): 30 µM; macroscopic vessels converging towards the implant [4]: 28±5 vessels/embryo; IC50 [3]: 30 µM; potency relative to free full length PTX3 ([3]; inhibition of FGF2 binding to PTX3 surface): 30 times lower |
| B1 |  |  |  | binding to FGF2 immobilized to non-tissue culture plastic [5]: No interaction |
| B2 |  |  |  | capacity of infected cells to proliferate in response to exogenous FGF2 [6]: No inhibition; inhibition of FGF2 mitogenic activity by conditioned medium of infected MAE cells ([1]; FGF2 0.55 nM, 24 h): ineffective |
